One protein from publication doi:10.1101/2023.08.01.551478, “A feedback control mechanism governs the synthesis of lipid-linked precursors of the bacterial cell wall” (bioRxiv, 2023) can be followed below.

The data set deals with the molecule itself. Nature of the data set: cryo-EM structure; YES complex of EcMraY(T23P), protein E and SlyD, obtained with the methodologies of ref. 31; focused refinement of MraY alone; processed with cryosparc v3.2.0.

B1: E. coli MraY(T23P) (enzyme)
chain: MLVWLAEHLVKYYSGFNVFSYLPFRAIVSLLTALFISLWMGPRMIAHLQKLSFGQVVRNDGPESHFSKRGTPTMGGIMILTAIVISVLLWAYPSNPYVWCVLVVLVGYGVIGFVDDYRKVVRKDTKGLIARWKYFWMSVIALGVAFALYLAGKDTPATQLVVPFFKDVMPQLGLFYILLAYFVIVGTGNAVNLTDGLDGLAIMPTVFVAGGFALVAWATGNMNFASYLHIPYLRHAGELVIVCTAIVGAGLGFLWFNTYPAQVFMGDVGSLALGGALGIIAVLLRQEFLLVIMGGVFVVETLSVILQVGSFKLRGQRIFRMAPIHHHYELKGWPEPRVIVRFWIISLMLVLIGLATLKVR
notes: MraY (phospho-MurNAc-pentapeptide transferase) of Escherichia coli with the T23P substitution, as it stood in the YES complex for cryo-EM; also called EcMraY(T23P)
With B1, the stoichiometry N (as a rule, the number of molecules, sites or subunits per partner or assembly) is 2.
